Where no end group is shown, it is not given here. [ ]: non-standard residue; d: D form. The star is where a group is joined. Met(O) = CS(=O)CC[C@H](N)C(=O)O; NMeV = CN[C@H](C(=O)O)C(C)C; NMeA = CN[C@@H](C)C(=O)O; Hexanoyl = CCCCCC(=O)*; Aib = CC(C)(N)C(=O)O; Mpa = O=C(O)CCS
Molecular target: T1, human VPAC2 receptor (human, UniProt P41587 24-438)
T1 sequence (looked up): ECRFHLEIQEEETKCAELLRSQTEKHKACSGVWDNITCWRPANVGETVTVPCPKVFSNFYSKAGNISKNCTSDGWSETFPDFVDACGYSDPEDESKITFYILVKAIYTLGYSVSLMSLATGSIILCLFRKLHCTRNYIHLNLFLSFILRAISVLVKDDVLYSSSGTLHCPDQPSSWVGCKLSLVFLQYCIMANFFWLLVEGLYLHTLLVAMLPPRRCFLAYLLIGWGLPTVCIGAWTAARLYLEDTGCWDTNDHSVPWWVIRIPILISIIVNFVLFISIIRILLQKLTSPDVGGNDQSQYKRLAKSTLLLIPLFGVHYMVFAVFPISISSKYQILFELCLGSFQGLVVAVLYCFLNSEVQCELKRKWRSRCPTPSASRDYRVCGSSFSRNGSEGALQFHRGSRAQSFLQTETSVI
Experiment: cell-based or functional assay

Binder	EC50 cAMP, Alpha Screen
[Met(O)]HSDAVFTDNYTRLRKQVAAKKYLQSIKNKRYGGPSSGAPPPS (ends and bridges not checked) [P199]	29.6 nM
Hexanoyl-HSD[dA]VFTDNYTRLRKQVAAKKYLQSIKNKRYGGPSSGAPPPS [P207]	0.86 nM
Hexanoyl-HSD[Aib]VFTDNYTRLRKQVAAKKYLQSIKNKRYGGPSSGAPPPS (ends and bridges not checked) [P209]	0.1 nM
Hexanoyl-HSD[NMeA]VFTDNYTRLRKQVAAKKYLQSIKNKRYGGPSSGAPPPS [P208]	50.1 nM
Hexanoyl-HSDAVFTANYTRLRKQVAAKKYLQSIKNKRYGGPSSGAPPPS [P158]	0.11 nM
Hexanoyl-HSDAVFTDNYTRLRKQVAAKQYLQSIKNKRYGGPSSGAPPPS [P183]	0.14 nM
Hexanoyl-HSDAVFTDNYTRLRKQVAAKKYIQSIKNKRYGGPSSGAPPPS [P233]	0.11 nM
Hexanoyl-HSDAVFTDNYTRLRRQVAAKKYLQSIKNKRYGGPSSGAPPPS [P176]	0.28 nM
Hexanoyl-HSDAVFTDNYTRLRKQVAAKLYLQSIKNKRYGGPSSGAPPPS [P185]	0.18 nM
Hexanoyl-HSDAVFTDNYTRLLKQVAAKKYLQSIKNKRYGGPSSGAPPPS [P174]	0.26 nM
Hexanoyl-HSDAVFTDNYTRLQKQVAAQKYLQSIKNKRYGGPSSGAPPPS [P252]	0.26 nM
Hexanoyl-HSDAVFTEEYTRLQKQVAAKQYLQSIKNKRYGGPSSGAPPPS [P165]	0.94 nM
Hexanoyl-HSDAVFTDNYTRLKKQVAAKKYLQSIKNKRYGGPSSGAPPPS [P171]	0.82 nM
Hexanoyl-HSDAVFTDNYTRLLAKVALQKYLQSIKNKRYGGPSSGAPPPS [P196]	0.23 nM
Hexanoyl-HSDAVFTDNYTRLRFQVAAKKYLQSIKNKRYGGPSSGAPPPS [P180]	1.04 nM
Hexanoyl-HSDAVFTDNYTRLAKQVAAKKYLQSIKNKRYGGPSSGAPPPS [P173]	0.25 nM
Hexanoyl-HSDAVFTDQYTRLLAKLALQKYLQSIKQKRYGGPSSGAPPPS [P192]	0.18 nM
Hexanoyl-HSDAVFTDNYTRLLAKLALQKYLQSIKNKRYGGPSSGAPPPC [P164]	0.11 nM
Hexanoyl-HSDAVFTDNYTRLLAKLAAQKYLQSIKNKRYGGPSSGAPPPS [P197]	0.09 nM
Hexanoyl-HSDALFTDNYTRLRKQVAAKKYLQSIKNKRYGGPSSGAPPPS [P289]	0.16 nM
Hexanoyl-HSDAVFTDNYTRLRKQVAAKAYLQSIKNKRYGGPSSGAPPPS [P184]	0.22 nM
Hexanoyl-HSDAVFTKNYTRLRKQVAAKKYLQSIKNKRYGGPSSGAPPPS [P160]	13.2 nM
Hexanoyl-HSDAVFTDNYTRLRKQLAAKKYLQSIKNKRYGGPSSGAPPPS [P290]	0.22 nM

Binder	EC50 cAMP, Alpha Screen
Hexanoyl-HSEAVFTDNYTRLRKQVAAKKYLQSIKNKRYGGPSSGAPPPS [P224]	0.14 nM
Hexanoyl-HSDAVFTDNYTRLRKQVAAKRYLQSIKNKRYGGPSSGAPPPS [P182]	0.29 nM
Hexanoyl-HSDAVFTENYTRLRKQVAAKKYLQSIKNKRYGGPSSGAPPPS [P159]	0.17 nM
Hexanoyl-HSDAVFTDNYTRLRKQVAAAKYLQSIKNKRYGGPSSGAPPPS [P181]	0.13 nM
Hexanoyl-HSDAVFTDNYTRLRKQVAAKKYLQSIKNKRFGGPSSGAPPPS [P203]	0.14 nM
Hexanoyl-HSDAVFTYNYTRLRKQVAAKKYLQSIKNKRYGGPSSGAPPPS [P163]	5.53 nM
Hexanoyl-HSDAVFTDNYTRLRKQVAGKKYLQSIKNKRYGGPSSGAPPPS [P275]	0.32 nM
Hexanoyl-HSDAVFTLNYTRLRKQVAAKKYLQSIKNKRYGGPSSGAPPPS [P161]	4 nM
Hexanoyl-HSDAVFTDNYTRLRKQVAAKKYAQSIKNKRYGGPSSGAPPPS [P235]	0.82 nM
Hexanoyl-HSDAVFTDNYTRLRLQVAAKKYLQSIKNKRYGGPSSGAPPPS [P179]	0.24 nM
Hexanoyl-HSDAVFTDNYTRLQKQVAAKQYLQSIKNKRYGGPSSGAPPPS [P253]	0.46 nM
Hexanoyl-HSDAVFTDNYTRLFKQVAAKKYLQSIKNKRYGGPSSGAPPPS [P175]	0.68 nM
Hexanoyl-HSDAVFTDNYTRLRKQVAAKFYLQSIKNKRYGGPSSGAPPPS [P186]	0.15 nM
Hexanoyl-HSDAVFTDNYTRLRKQVAAKKYWQSIKNKRYGGPSSGAPPPS [P230]	0.3 nM
Hexanoyl-HSDAVFTDNYTRLRKQVAAKKYVQSIKNKRYGGPSSGAPPPS [P234]	0.16 nM
Hexanoyl-HSDAVFTDNYTRLRKQVAAKKYFQSIKNKRYGGPSSGAPPPS [P231]	0.26 nM
Hexanoyl-HSDAVFTRNYTRLRKQVAAKKYLQSIKNKRYGGPSSGAPPPS [P162]	11.1 nM
Hexanoyl-HSDAVFTDNYTRLLAQLALQKYLQSIKNKRYGGPSSGAPPPS [P195]	0.25 nM
Hexanoyl-HSDA[dV]FTDNYTRLRKQVAAKKYLQSIKNKRYGGPSSGAPPPS [P210]	0.91 nM
[Mpa]HSDAVFTDNYTRLLAKLALQKYLQSIKNKRYGGPSSGAPPPS [P205]	1.14 nM
Hexanoyl-HSDA[NMeV]FTDNYTRLRKQVAAKKYLQSIKNKRYGGPSSGAPPPS [P211]	989 nM
Hexanoyl-HSDAVFTDNYTRLRK(Ac)QVAAKK(Ac)YLQSIKNKRYGGPSSGAPPPS [P194]	0.13 nM

From patent US20080026996A1, “Selective Vpac2 Receptor Reptide Agonists” (ELI LILLY AND COMPANY, priority 2004, published 2008)
